Patent US10760049B2, “Generation of neural stem cells from undifferentiated human embryonic stem cells” (ES Cell International PTE Ltd., priority 2002, dated 2020)

Experiments:
[1] = system: hES cell derived neural progenitors; assay: Directed differentiation of neural progenitors towards a midbrain fate; scoring of TH+ clumps and TH+ neurons; assay type: cell-based, human; settings: for effect on the proportion of TH+ clumps: added at 10 ng/ml to IBMX, Forskolin, PMA, dopamine and AA
Text: Neurospheres that were generated from noggin treated ES cell colonies as described above (Example 1) were propagated 21-35 days in NPM supplemented with FGF-2 and EGF. At this point the spheres were chopped into small clumps (2000-3000 cells per clump). FGF-2 and EGF were removed from the medium and the progenitors were directed to take a midbrain fate by treatment with various factors for 6-8 days. During treatment with the various factors the clumps were either cultured in suspension or plated on poly-D-lysine and laminin. The factors included. FGF1, FGF8, FGF17 (R&D Systems) at concentrations of 100-200 ng/ml SHH (R&D Systems) at 0.5-1 μg/ml. Other signal transduction inducers: cAMP inducers: IBMX (Sigma, 0.25 mM), forskolin (Sigma 50 μM), PKC inducers PMA (Sigma 200 nM) and dopamine (Sigma 20 μM) were also used. The medium was also supplemented with the survival factors Ascorbic acid (AA) (Sigma) at concentration of 400-800 μM and NT4 (R&D Systems) at concentration of 20 ng/ml. The medium was changed every other day. To induce further differentiation into neurons, the spheres were again disaggregated into small clumps and plated on poly-D-lysine (30-70 kDa. 10 μg/ml, Sigma) and laminin (4 μg/ml, Sigma) and cultured in NPM in the absence of the factors and in the presence of AA with or without NT4 for 5-10 days. Differentiated cells were analysed by indirect immunofluorescence (as described in example 1) for the expression of β-tubulin type III (Sigma, 1:1000-3000) Tyrosine hydroxylase (TH) (Sigma anti mouse monoclonal, 1:250-500 and Pel-Freez anti rabbit polyclonal, 1:50-100) dopamine transporter (DAT;_Chemicon; rabbit polyclobal 1:50-100) and Nurr1 (Santa Cruz, Calif.; rabbit poly clonal 1:100-200). The proportion of clumps of cells that were comprised of a significant number of TH+ cells (>50 cells) was scored. Double immunostaining for TH and β-tubulin type III was used to analyse the percentage of cells within clumps expressing TH from the total number of neurons β-tubulin type III+cells). Multiple confocal microscopy images of consecutive planes through the clump were projected into one image for this analysis (FIG. 14) Ten-fifteen random fields were analysed.

[2] = system: human ES cells (HES-1 cell line); assay: Noggin-directed differentiation of hES cell colonies on feeders; immunophenotype of derived spheres and rosette areas; assay type: cell-based
Procedure: To derive enriched preparations of neural progenitors, differentiation of human ES cells was directed into neural fate by transfer of undifferentiated hES cell clumps onto fresh feeders and culture in a modified hES cell medium with reduced serum concentration and in the presence of the BMP antagonist noggin. Specifically, human ES cells (HES-1 cell line, Reubinoff et al 2000, PCT/AU99/00990) with a stable normal (46XX) karyotype were cultured on mitomycin C mitotically inactivated mouse embryonic fibroblast feeder layer in gelatine coated tissue culture dishes as previously described (Reubinoff et al., 2000 PCT/AU99/00990 and PCT/AU01/00278). To induce differentiation, at the usual passage, clumps of undifferentiated ES cells were plated on fresh feeders and cultured in the usual hES medium supplemented with 10% serum (instead of 20%) and 500 ng/ml of noggin (R&D systems). Noggin (500 ng/ml) was further added to the medium every other day throughout a 6-8 day culture period (3-4 administrations). After 6-8 days, noggin was omitted and the cells were further cultured in the modified medium with 10% serum for additional 4-6 days. At this time about 12-14 days, about 70% of the colonies differentiated mostly into areas that were comprised of tightly packed small cells with a uniform grey opaque appearance under dark field stereo microscope (FIG. 1a, PCT/AU01/00278, PCT/AU01/00735). Other colonies differentiated into areas with structures that could resemble primitive neural rosettes (FIG. 1b).
Clumps of about 150 cells were mechanically isolated by using the razor-sharp edge of a micro glass pipette or a razor blade from the grey opaque areas and replated in serum-free medium supplemented with human recombinant FGF-2 and EGF. Specifically, the clusters of cells were transferred to plastic tissue culture dishes containing neural progenitors growth medium (NPM) that consisted of DMEM/F12 (1:1), B27 supplementation (1:50), glutamine 2 mM, penicillin 50 u/ml and streptomycin 50 μg/ml (Gibco), and supplemented with 20 ng/ml human recombinant epidermal growth factor (EGF), and 20 ng/ml fibroblast growth factor 2 (FGF2) (R & D Systems, Inc., Minneapolis, Minn.). Under these culture conditions the clumps formed free floating spherical structures within 24 hours and sequential propagation and expansion of the sphere cultures was possible as previously described (Reubinoff at al., 2001, PCT/AU01/00278) for prolonged periods (6 months).
During the initial weeks in culture, the spheres gradually acquired a uniform morphology (FIG. 3 A,B). A detailed analysis of marker expression by the cell within the spheres was conducted at 3-4, 8 and 12 weeks after derivation. The spheres were disaggregated into single cells that were plated, fixed and analysed by fluorescent immunohistochemistry for the expression of the early neural markers N-CAM, A2B5, PSA-NCAM and nestin. A high proportion of the cells expressed these markers (N-CAM 83±4% A2B5 84±4%, nestin 69±6% PSA-NCAM 74±2%) and the level of expression was stable during the 12 weeks period.
The phenotype of cells within the areas with structures that could resemble primitive neural rosettes (FIG. 1b) was also analyzed. These areas were mechanically dissected, and disaggregated. The cells were plated on laminin and cultured in NPM for two days.
(§1) In general, for the immunophenotyping of disaggregated neural progenitor cells and differentiated neurons, fixation with 4% paraformaldehyde for 20 minutes at room temperature was used unless otherwise specified. It was followed by blocking with 5% heat inactivated goat serum (Dako) and permeabilization with 0.2% Triton X (Sigma) in PBS with 0.1% BSA for 30 minutes. Samples were incubated with the primary antibodies at room temperature for one hour. […]

[3] = system: undifferentiated human ES cell clumps; assay: hES cell clumps cultured in suspension in NPM+FGF2 with or without noggin; indirect immunofluorescence for neural and non-neural markers; assay type: cell-based; settings: for proportion of cells expressing endodermal and mesodermal markers: noggin 350 and 700 ng/ml versus no noggin, then a week of differentiation
Procedure: In an alternative approach, undifferentiated human ES cell clumps of about 200 cells were transferred into NPM and cultured in suspension in the presence of noggin (350 and 700 ng/ml) for approximately 3 weeks. To further induce neural differentiation, proliferation and prevent the differentiation of neural progenitors the medium was also supplemented with human recombinant FGF-2 (20 ng/ml). LIF (10 ng/ml) was also included in the medium in early experiments. The media was replaced twice a week. Under these culture conditions the clumps of hES cells turned into round spheres within 7 days (FIG. 3 C,D).
To evaluate the effect of these culture conditions, we have evaluated the phenotype of cells within clumps following three weeks of culture. We have examined two concentrations of noggin (350 and 700 ng/ml) in comparison to culture in NPM supplemented with FGF2 in the absence of noggin. The clusters were disaggregated into single cells or small clumps that were plated, cultured for 4 hours on laminin, fixed and analysed by indirect immunofluorescence for the expression of the early neural markers nestin, A2B5 and N-CAM. Markers of endoderm (probably extraembryonic; low molecular weight (LMW) cytokeratin and laminin) and mesoderm (muscle specific actin and desmin) were examined after a week of differentiation. Immunofluorescence methods and source of antibodies are described below in section (C).
To analyse and differentiate between the effect of NPM supplemented with FGF2 and noggin on the differentiation of the hES cell clusters we have characterized and compared the differentiation of these clusters following culture in three different media (FIG. 5): (a) NPM supplemented with b-FGF and noggin (700 ng/ml), (b) the same medium without noggin and (c) knockout (KO) medium. After three weeks of culture a significant difference in the morphology of the clusters was observed. Clusters that were cultured in KO medium had the typical morphology of embryoid bodies (EBs, FIG. 5c). Clusters that were cultured in NPM and FGF2 were characterized by cystic structures and areas of dense cells resembling neural spheres (FIG. 5b). Clusters that were cultured in the presence of noggin had the typical morphology of neural spheres without cystic structures (FIG. 5a).
Clusters that were cultured in NPM with (FIG. 5a) or without noggin (FIG. 5b) were further cultured for an additional 3 weeks in NPM supplemented with FGF2 in the absence of noggin (FIG. 5).
To characterize and compare the phenotype of cells within the clusters following differentiation and propagation at the various culture conditions (FIG. 5), the clusters were disaggregated after 3 weeks in culture into single cells or small clumps that were plated, cultured for 4 hours on laminin, fixed and analysed for the expression of the early neural markers nestin, A2B5, N-CAM, PSA-NCAM and β-tubulin III (FIG. 6). The same analysis was done after additional 3 weeks of culture in NPM supplemented with FGF2 (FIG. 7).
The percentage of cells within the clumps that expressed non-neural markers at 3 weeks (FIG. 8) and 6 weeks (FIG. 9) of the same floating cultures as above was analysed. Indirect immuno fluorescence analysis of the expression of non-neural markers was performed following disaggregation of the clumps and one week of differentiation on laminin.
as §1

[4] = system: undifferentiated human ES cell clumps; assay: RT-PCR of non-neural marker transcripts in noggin treated hES cell clumps; assay type: cell-based
Procedure: At the RNA level, RT-PCR analysis confirmed that in the noggin treated clumps the expression of the endodermal (probably extraembryonic) marker alpha-fetal protein was reduced/undetectable at 3 weeks. This marker was also undetectable at 6 weeks.
RT-PCR was performed as previously described (Reubinoff et al., 2001). Primer sequences (forward and reverse) and the length of amplified products were as previously described (Reubinoff et al 2001) for alpha-feto-protein and HNF3a and as follows for keratin 8: […]

[5] = spheres derived from noggin treated colonies, 3-4, 8 and 12 weeks after derivation
[6] = three weeks in NPM+FGF2+noggin (700 ng/ml)

## O=C1O[C@H]([C@@H](O)CO)C(O)=C1O [ascorbic acid, reference compound]
[1]; confocal microscopy, cellular level
  percentage of TH+ neurons from the total number of neurons (β-tubulin type III+ cells): 45%
[1]; factors for 6-8 days after removal of FGF-2 and EGF, then differentiation on poly-D-lysine and laminin with AA
  proportion of TH+ clumps (clumps with >50 TH+ cells): 35%

## FGF-1: fibroblast growth factor FGF1 (R&D Systems)
[1]
  effect on the proportion of TH+ clumps: did not increase

B1: noggin: BMP antagonist noggin (R&D systems) (protein, UniProt Q13253 28-232, looked up)
Noggin: QHYLHIRPAPSDNLPLVDLIEHPDPIFDPKEKDLNETLLRSLLGGHYDPGFMATSPPEDRPGGGGGAAGGAEDLAELDQLLRQRPSGAMPSEIKGLEFSEGLAQGKKQRLSKKLRRKLQMWLWSQTFCPVLYAWNDLGSRFWPRYVKVGSCFSKRSCSVPEGMVCKPSKSVHLTVLRWRCQRRGGQRCGWIPIQYPIISECKCSC
[2]; areas resembling primitive neural rosettes in noggin treated colonies, two days on laminin in NPM
  cells expressing N-CAM and nestin: 95-100%
[2]; noggin 500 ng/ml every other day for 6-8 days, 10% serum, on feeders, scored at about 12-14 days
  colonies differentiated mostly into areas of tightly packed small cells: about 70%
[2]; [5]
  cells expressing A2B5: 84±4%
  cells expressing N-CAM: 83±4%
  cells expressing PSA-NCAM: 74±2%
  cells expressing nestin: 69±6%
[3]; after additional 3 weeks of culture in NPM+FGF2 (6 weeks)
  cells expressing non-neural markers: undetectable or rare
[3]; noggin 700 ng/ml, three weeks
  percentage of cells expressing nestin and A2B5 versus NPM+FGF2 without noggin: slightly higher
[3]; three weeks
  proportion of cells expressing endodermal and mesodermal markers: significantly reduced after noggin treatment in a dose dependent manner
[3]; three weeks, listed as Noggin
  proportion of cells expressing endodermal and mesodermal markers: reduced in a dose dependent manner
[3]; noggin treated cultures after 3 weeks, one week of differentiation on laminin
  percentage of cells expressing non-neural markers: significant reduction
[3]; [6]
  percentage of cells expressing A2B5: 95.6%
  percentage of cells expressing NCAM: 73%
[3]; three weeks in NPM+FGF2+noggin, then additional 3 weeks in NPM+FGF2
  percentage of cells expressing NCAM: 93%
[4]; 3 weeks
  expression of endodermal marker alpha-fetal protein (RT-PCR): reduced/undetectable
  expression of transcripts of epidermal marker keratin-14 (RT-PCR): significantly reduced
[4]; 6 weeks
  expression of endodermal marker HNF3α (RT-PCR): reduced/undetectable
  expression of endodermal marker alpha-fetal protein (RT-PCR): undetectable
  expression of transcripts of epidermal marker keratin-14 (RT-PCR): undetectable

B2: FGF-8: fibroblast growth factor FGF8 (R&D Systems) (protein, UniProt P55075 23-233, looked up)
Fibroblast growth factor 8: QEGPGRGPALGRELASLFRAGREPQGVSQQHVREQSLVTDQLSRRLIRTYQLYSRTSGKHVQVLANKRINAMAEDGDPFAKLIVETDTFGSRVRVRGAETGLYICMNKKGKLIAKSNGKGKDCVFTEIVLENNYTALQNAKYEGWYMAFTRKGRPRKGSKTRQHQREVHFMKRLPRGHHTTEQSLRFEFLNYPPFTRSLRGSQRTWAPEPR
[1]
  effect on the proportion of TH+ clumps: did not increase
